{
  "source": "patent US20220025021A1",
  "about": "(BETH ISRAEL DEACONESS MEDICAL CENTER, published 2022)",
  "binders": {"B1": {"name": "MS-72 (antibody, V domains shown)", "VH": "QVQLVQSGPEVRKPGTSVKVSCKAPGNTLKTYDLHWVRSVPGQGLQWMGWISHEGDKKVIVERFKAKVTIDWDRSTNTAYLQLSGLTSGDTAVYYCAKGSKHRLRDYALYDDDGALNWAVDVDYLSNLEFWGQGTAVTVSS", "VL": "DFVLTQSPHSLSVTPGESASISCKSSHSLIHGDRNNYLAWYVQKPGRSPQLLIYLASSRASGVPDRFSGSGSDTDFTLKISRVETEDVGTYYCMQGRESPWTFGQGTKVDIKR"}, "B2": {"name": "MS-79 (antibody, V domains shown)", "VH": "B1 VH with D71T", "VL": "B1 VL with T74K"}, "B3": {"name": "MS-80 (antibody, V domains shown)", "VH": "B1 VH with W72R", "VL": "B1 VL with T74K"}, "B4": {"name": "MS-74 (antibody, V domains shown)", "VH": "B1 VH", "VL": "B1 VL with T74K, T90V"}, "B5": {"name": "MS-78 (antibody, V domains shown)", "VH": "B1 VH with Q46E", "VL": "B1 VL with T74K"}, "B6": {"name": "MS-77 (antibody, V domains shown)", "VH": "B1 VH with L29F", "VL": "B1 VL with T74K"}, "B7": {"name": "MS-76 (antibody, V domains shown)", "VH": "B1 VH with N27Y", "VL": "B1 VL with T74K"}},
  "note": "Numbering of substitutions follows the chain as printed.",
  "data": [
    {"target": "HIV-1 pseudovirus 263-8 (HIV-1)", "experiment": "cell-based or functional assay", "units": {"IC50 (neutralization in TZM.bl cells)": "µg/mL", "IC80 (neutralization in TZM.bl cells)": "µg/mL"}, "values": [
      {"binder": "B1", "IC50 (neutralization in TZM.bl cells)": 0.02, "IC80 (neutralization in TZM.bl cells)": 0.057},
      {"binder": "B2", "IC50 (neutralization in TZM.bl cells)": 0.018, "IC80 (neutralization in TZM.bl cells)": 0.067},
      {"binder": "B3", "IC50 (neutralization in TZM.bl cells)": 0.033, "IC80 (neutralization in TZM.bl cells)": 0.173},
      {"binder": "B4", "IC50 (neutralization in TZM.bl cells)": 0.013, "IC80 (neutralization in TZM.bl cells)": 0.037},
      {"binder": "B5", "IC50 (neutralization in TZM.bl cells)": 0.014, "IC80 (neutralization in TZM.bl cells)": 0.053},
      {"binder": "B6", "IC50 (neutralization in TZM.bl cells)": 0.012, "IC80 (neutralization in TZM.bl cells)": 0.033},
      {"binder": "B7", "IC50 (neutralization in TZM.bl cells)": 0.015, "IC80 (neutralization in TZM.bl cells)": 0.053}
    ]},
    {"target": "HIV-1 pseudovirus SC05.8C11.2344 (HIV-1)", "experiment": "cell-based or functional assay", "units": {"IC50 (neutralization in TZM.bl cells)": "µg/mL", "IC80 (neutralization in TZM.bl cells)": "µg/mL"}, "values": [
      {"binder": "B1", "IC50 (neutralization in TZM.bl cells)": 0.791, "IC80 (neutralization in TZM.bl cells)": 2.85},
      {"binder": "B2", "IC50 (neutralization in TZM.bl cells)": 0.593, "IC80 (neutralization in TZM.bl cells)": 1.97},
      {"binder": "B3", "IC50 (neutralization in TZM.bl cells)": 0.898, "IC80 (neutralization in TZM.bl cells)": 3.15},
      {"binder": "B4", "IC50 (neutralization in TZM.bl cells)": 0.415, "IC80 (neutralization in TZM.bl cells)": 1.94},
      {"binder": "B5", "IC50 (neutralization in TZM.bl cells)": 0.658, "IC80 (neutralization in TZM.bl cells)": 2.26},
      {"binder": "B6", "IC50 (neutralization in TZM.bl cells)": 0.516, "IC80 (neutralization in TZM.bl cells)": 2.41},
      {"binder": "B7", "IC50 (neutralization in TZM.bl cells)": 0.587, "IC80 (neutralization in TZM.bl cells)": 2.57}
    ]},
    {"target": "HIV-1 pseudovirus X1193_c1 (HIV-1)", "experiment": "cell-based or functional assay", "units": {"IC50 (neutralization in TZM.bl cells)": "µg/mL", "IC80 (neutralization in TZM.bl cells)": "µg/mL"}, "values": [
      {"binder": "B1", "IC50 (neutralization in TZM.bl cells)": 0.072, "IC80 (neutralization in TZM.bl cells)": 0.258},
      {"binder": "B2", "IC50 (neutralization in TZM.bl cells)": 0.109, "IC80 (neutralization in TZM.bl cells)": 0.365},
      {"binder": "B3", "IC50 (neutralization in TZM.bl cells)": 0.137, "IC80 (neutralization in TZM.bl cells)": 0.607},
      {"binder": "B4", "IC50 (neutralization in TZM.bl cells)": 0.086, "IC80 (neutralization in TZM.bl cells)": 0.296},
      {"binder": "B5", "IC50 (neutralization in TZM.bl cells)": 0.126, "IC80 (neutralization in TZM.bl cells)": 0.452},
      {"binder": "B6", "IC50 (neutralization in TZM.bl cells)": 0.109, "IC80 (neutralization in TZM.bl cells)": 0.398},
      {"binder": "B7", "IC50 (neutralization in TZM.bl cells)": 0.126, "IC80 (neutralization in TZM.bl cells)": 0.575}
    ]},
    {"target": "HIV-1 pseudovirus Ce1176_A3 (HIV-1)", "experiment": "cell-based or functional assay", "units": {"IC50 (neutralization in TZM.bl cells)": "µg/mL", "IC80 (neutralization in TZM.bl cells)": "µg/mL"}, "values": [
      {"binder": "B1", "IC50 (neutralization in TZM.bl cells)": 0.074, "IC80 (neutralization in TZM.bl cells)": 1.3},
      {"binder": "B2", "IC50 (neutralization in TZM.bl cells)": 0.473, "IC80 (neutralization in TZM.bl cells)": 9.05},
      {"binder": "B3", "IC50 (neutralization in TZM.bl cells)": 1.11, "IC80 (neutralization in TZM.bl cells)": "> 25"},
      {"binder": "B4", "IC50 (neutralization in TZM.bl cells)": 0.028, "IC80 (neutralization in TZM.bl cells)": 0.564},
      {"binder": "B5", "IC50 (neutralization in TZM.bl cells)": 0.047, "IC80 (neutralization in TZM.bl cells)": 0.837},
      {"binder": "B6", "IC50 (neutralization in TZM.bl cells)": 0.067, "IC80 (neutralization in TZM.bl cells)": 1.12},
      {"binder": "B7", "IC50 (neutralization in TZM.bl cells)": 0.082, "IC80 (neutralization in TZM.bl cells)": 1.63}
    ]},
    {"target": "HIV-1 pseudovirus AC10.0.29 (HIV-1)", "experiment": "cell-based or functional assay", "units": {"IC50 (neutralization in TZM.bl cells)": "µg/mL", "IC80 (neutralization in TZM.bl cells)": "µg/mL"}, "values": [
      {"binder": "B1", "IC50 (neutralization in TZM.bl cells)": 0.051, "IC80 (neutralization in TZM.bl cells)": 0.255},
      {"binder": "B2", "IC50 (neutralization in TZM.bl cells)": 0.056, "IC80 (neutralization in TZM.bl cells)": 0.404},
      {"binder": "B3", "IC50 (neutralization in TZM.bl cells)": 0.054, "IC80 (neutralization in TZM.bl cells)": 0.28},
      {"binder": "B4", "IC50 (neutralization in TZM.bl cells)": 0.041, "IC80 (neutralization in TZM.bl cells)": 0.216},
      {"binder": "B5", "IC50 (neutralization in TZM.bl cells)": 0.044, "IC80 (neutralization in TZM.bl cells)": 0.225},
      {"binder": "B6", "IC50 (neutralization in TZM.bl cells)": 0.036, "IC80 (neutralization in TZM.bl cells)": 0.311},
      {"binder": "B7", "IC50 (neutralization in TZM.bl cells)": 0.047, "IC80 (neutralization in TZM.bl cells)": 0.368}
    ]},
    {"target": "HIV-1 pseudovirus 6952.v1.c20 (HIV-1)", "experiment": "cell-based or functional assay", "units": {"IC50 (neutralization in TZM.bl cells)": "µg/mL", "IC80 (neutralization in TZM.bl cells)": "µg/mL"}, "values": [
      {"binder": "B1", "IC50 (neutralization in TZM.bl cells)": 0.643, "IC80 (neutralization in TZM.bl cells)": 12.4},
      {"binder": "B2", "IC50 (neutralization in TZM.bl cells)": 13.2, "IC80 (neutralization in TZM.bl cells)": "> 25"},
      {"binder": "B3", "IC50 (neutralization in TZM.bl cells)": "> 25", "IC80 (neutralization in TZM.bl cells)": "> 25"},
      {"binder": "B4", "IC50 (neutralization in TZM.bl cells)": 0.285, "IC80 (neutralization in TZM.bl cells)": 15.1},
      {"binder": "B5", "IC50 (neutralization in TZM.bl cells)": 0.342, "IC80 (neutralization in TZM.bl cells)": "> 25"},
      {"binder": "B6", "IC50 (neutralization in TZM.bl cells)": 0.236, "IC80 (neutralization in TZM.bl cells)": 6.74},
      {"binder": "B7", "IC50 (neutralization in TZM.bl cells)": 0.844, "IC80 (neutralization in TZM.bl cells)": "> 25"}
    ]}
  ]
}
